Tests used:
[1] = target: human JAM-A on the surface of Lec2-JAM-A cells (human) (UniProt Q9Y624); test: single-virus force spectroscopy (FD-based AFM); virions on the AFM tip; living Lec2-JAM-A cells co-cultured with fluorescent Lec2 cells; PeakForce QNM mode, 37 °C, culture medium, 5% CO2; no glycan added
[2] = target: His6-tagged JAM-A (junctional adhesion molecule A) (UniProt Q9Y624); test: single-virus force spectroscopy (FD-based AFM); virions or ISVPs covalently linked by a PEG27 spacer to the AFM tip; His6-JAM-A immobilised on an NTA-Ni2+ gold surface; virus buffer (150 mM NaCl, 15 mM MgCl2, 10 mM Tris pH 7.4), ~25 °C; single bonds fitted with the Bell-Evans model; no glycan added
[3] = target: His6-tagged JAM-A (junctional adhesion molecule A) (UniProt Q9Y624); test: single-virus force spectroscopy (FD-based AFM); as a1, after injection of 1 mM sialylated glycan (Neu5Ac or LSTa)
[4] = target: human JAM-A on the surface of Lec2-JAM-A cells (human) (UniProt Q9Y624); test: single-virus force spectroscopy (FD-based AFM); as a4, the same area scanned again after adding 1 mM LNnT to the culture medium
[5] = target: human JAM-A on the surface of Lec2-JAM-A cells (human) (UniProt Q9Y624); test: single-virus force spectroscopy (FD-based AFM); as a4, the same area scanned again after adding 1 mM Neu5Ac or 1 mM LSTa to the culture medium; also on cells treated before with neuraminidase (40 mUnit/mL, 1 h)
[6] = target: His6-tagged junctional adhesion molecule A (UniProt Q9Y624); test: single-virus force spectroscopy (FD-based AFM); virus particles on the AFM tip through a PEG27 linker; His6-JAM-A on an NTA-Ni2+ gold model surface; virus buffer, ~25 °C; after adding 1 mM LSTa; koff of the single bond from a Bell-Evans fit of the DFS plot
[7] = target: His6-tagged junctional adhesion molecule A (UniProt Q9Y624); test: single-virus force spectroscopy (FD-based AFM); virus particles on the AFM tip through a PEG27 linker; His6-JAM-A on an NTA-Ni2+ gold model surface; virus buffer, ~25 °C; after adding 1 mM Neu5Ac; koff of the single bond from a Bell-Evans fit of the DFS plot
[8] = target: His6-tagged junctional adhesion molecule A (UniProt Q9Y624); test: single-virus force spectroscopy (FD-based AFM); virus particles on the AFM tip through a PEG27 linker; His6-JAM-A on an NTA-Ni2+ gold model surface; virus buffer, ~25 °C; after adding 1 mM LNnT (no sialic acid); koff of the single bond from a Bell-Evans fit of the DFS plot

reovirus σ1 attachment protein of mutant strain T3SA− (P204L), on purified virions (from UniProt P03528 1-455) (natural protein)
frequency of adhesion events [1]: 4%
koff [2]: 0.05 s⁻¹
specific binding force [2]: 20 to 130 pN

reovirus σ1 attachment protein of strain T3SA+, on purified virions (from UniProt P03528 1-455) (natural protein)
overall binding force with 1 mM Neu5Ac or LSTa [3]: < 400 pN
simultaneous virus-receptor bonds in the presence of α-SA [3]: < 3
binding frequency after 1 mM LNnT [4]: 3.9%
binding frequency before LNnT [1]: 3.8%
binding frequency before LSTa [1]: 3.8%
binding frequency before Neu5Ac [1]: 3.9%
density of adhesion events [1]: 3.5%
rupture force [1]: 50 to 400 pN
simultaneous virus-receptor bonds [1]: < 4
binding frequency after 1 mM LSTa [5]: 4.8%
binding frequency after 1 mM Neu5Ac [5]: 4.9%
increase in binding after Neu5Ac against before, neuraminidase-treated cells [5]: 20%
koff [2]: 0.04 s⁻¹
specific binding force [2]: 20 to 130 pN

reovirus σ1 attachment protein on T3SA- virions (P204L) (from UniProt P03528 1-455)
koff [6]: 0.24 s⁻¹
koff [7]: 0.08 s⁻¹
koff [8]: 0.07 s⁻¹

reovirus σ1 attachment protein on T3SA+ infectious subvirion particles (from UniProt P03528 1-455) (natural protein)
koff [7]: 0.18 s⁻¹

Reference: PMC6773860
